Measured values reported in patent US20050059803A1 (ARIAD GENE THERAPEUTICS, published 2005).

Target: LexA-FKBP12 fusion protein (human FKBP12, bait plasmid pIC504) (human, UniProt P62942 1-104)
Assay: cell-based or functional assay

LexA-FKBP12 fusion protein (human FKBP12, bait plasmid pIC504), sequence (P62942 other isoform, or with tags, fused parts or gaps limits assumed): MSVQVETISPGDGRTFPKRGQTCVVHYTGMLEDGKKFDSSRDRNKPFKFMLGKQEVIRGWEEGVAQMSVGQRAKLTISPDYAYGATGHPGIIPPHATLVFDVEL

B1: human RAPT1 rapamycin-binding domain fused to the VP16 activation domain (other)
chain: VSEELIRVAILWHEMWHEGLEEASRLYFGERNVKGMFEVLEPLHAMMERGPQTLKETSFNQAYGRDLMEAQEWCRKYMKSGNVKDLTQAWDLYYHVFRRISKQLPQLTSLELQYVSPKLLMCRDLELAVPGTYDPNQPIIRIQSIAPSLQVITSKQRPRKLTLMGSNGHEFVF
**Q.** Which “β-galactosidase activity (lacZ reporter, chemiluminescent substrate)” value does the source give for B1 here?
**A.** The value was about 1000 fold.
